Target: N-terminal Flag tagged human FOXO1A (human, UniProt Q12778 1-655)
Test: cell-based or functional assay

N-terminal Flag tagged human FOXO1A, sequence (Q12778 whole entry): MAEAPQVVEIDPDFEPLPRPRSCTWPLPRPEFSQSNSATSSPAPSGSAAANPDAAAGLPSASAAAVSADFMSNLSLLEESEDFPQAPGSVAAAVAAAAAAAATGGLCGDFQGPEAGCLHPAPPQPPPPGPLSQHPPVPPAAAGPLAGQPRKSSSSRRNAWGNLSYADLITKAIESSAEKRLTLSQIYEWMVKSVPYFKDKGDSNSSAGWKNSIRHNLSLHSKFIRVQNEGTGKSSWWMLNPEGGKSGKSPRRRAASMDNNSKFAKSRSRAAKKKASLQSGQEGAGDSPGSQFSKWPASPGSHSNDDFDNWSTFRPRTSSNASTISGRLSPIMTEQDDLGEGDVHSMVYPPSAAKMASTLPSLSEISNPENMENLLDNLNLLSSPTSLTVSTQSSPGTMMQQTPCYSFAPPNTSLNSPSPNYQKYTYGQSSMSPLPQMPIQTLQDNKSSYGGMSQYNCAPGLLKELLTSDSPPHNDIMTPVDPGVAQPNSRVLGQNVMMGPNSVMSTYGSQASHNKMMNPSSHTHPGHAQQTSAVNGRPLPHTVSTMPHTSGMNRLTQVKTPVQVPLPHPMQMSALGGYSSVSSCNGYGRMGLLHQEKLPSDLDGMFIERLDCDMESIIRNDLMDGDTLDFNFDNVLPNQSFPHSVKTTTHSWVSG

B1: HoxA11-V5/His fusion protein (natural protein)
chain: not shown
- luciferase expression from the dPRL-332/luc3 decidual PRL enhancer reporter in HeLa cells cotransfected with HoxA-11 and FOXO1A, fold change relative to empty expression vector: > 3 fold
